According to patent US20090214427:

How the values were obtained:
[1] = system: synthetic peptide HK2p02 (AARRPFPAPS)
[2] = system: synthetic peptide HK2p01 (SRFKVWWAAG)
[3] = system: synthetic peptide HK2p03 (PARRPFPVTA)
[4] = system: synthetic peptide HK2p04 (CFRQGCWVIT)
[5] = system: synthetic peptide HK2p06 (CYRMPTCMQRD)

Sequence of plasma kallikrein (chain, as listed by the source): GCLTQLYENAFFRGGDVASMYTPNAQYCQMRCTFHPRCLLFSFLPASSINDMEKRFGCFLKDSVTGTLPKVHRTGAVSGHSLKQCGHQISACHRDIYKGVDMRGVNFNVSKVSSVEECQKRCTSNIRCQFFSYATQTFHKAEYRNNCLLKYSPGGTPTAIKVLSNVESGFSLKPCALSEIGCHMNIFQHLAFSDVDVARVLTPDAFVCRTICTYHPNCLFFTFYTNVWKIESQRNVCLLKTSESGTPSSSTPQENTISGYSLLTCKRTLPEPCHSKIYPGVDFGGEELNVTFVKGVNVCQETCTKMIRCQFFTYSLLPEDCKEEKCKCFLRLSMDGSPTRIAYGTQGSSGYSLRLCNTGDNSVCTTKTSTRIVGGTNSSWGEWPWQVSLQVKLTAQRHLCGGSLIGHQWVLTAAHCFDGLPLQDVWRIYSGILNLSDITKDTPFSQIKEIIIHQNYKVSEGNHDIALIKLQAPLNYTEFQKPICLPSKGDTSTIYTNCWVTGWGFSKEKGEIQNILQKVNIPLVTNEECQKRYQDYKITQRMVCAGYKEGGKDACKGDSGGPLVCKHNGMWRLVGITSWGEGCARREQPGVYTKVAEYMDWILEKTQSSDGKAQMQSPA

Row | Substance | enzyme activity (chromogenic substrate) [1] | enzyme activity (chromogenic substrate) [2] | enzyme activity (chromogenic substrate) [3] | enzyme activity of hK2 (chromogenic substrate S-2302) [1] | enzyme activity of hK2 (chromogenic substrate S-2302) [4] | enzyme activity of hK2 (chromogenic substrate S-2302) [2] | enzyme activity of hK2 (chromogenic substrate S-2302) [5] | enzyme activity of hK2 (chromogenic substrate S-2302) [3]
1 | plasma kallikrein | showed no inhibition | showed no inhibition | showed no inhibition |  |  |  |  | 
2 | prostate specific antigen | showed no inhibition | showed no inhibition | showed no inhibition |  |  |  |  | 
3 | recombinant wild-type (wt) human kallikrein 2 |  |  |  | caused a significant reduction of the enzyme activity | did not show any effect on the enzyme activity of hK2 | caused a significant reduction of the enzyme activity | did not show any effect on the enzyme activity of hK2 | caused a significant reduction of the enzyme activity
4 | thrombin | showed no inhibition | showed no inhibition | showed no inhibition |  |  |  |  | 
5 | urokinase | showed no inhibition | showed no inhibition | showed no inhibition |  |  |  |  | 
6 | α-chymotrypsin | showed no inhibition | showed no inhibition | showed no inhibition |  |  |  |  | 
